Experimental data taken from patent publication US20200239541A1 (XYPHOS BIOSCIENCES, published 2020).

Tests used:
Fc-NKG2D.wt [1] = target: T1, Fc-NKG2D.wt (human); assay: ELISA (called Kd in the text)
T1 construct: also called NKG2D.wt Y|Y; natural Fc-NKG2D
Method: (§1) The binding affinities of α1-α2 variants to the extracellular domains of natural (wild-type) NKG2D and non-natural eNKG2D proteins were analyzed using a plate-based ELISA method. Each of the SEC fractionated natural Fc-NKG2D and non-natural Fc-eNKG2D fusions were coated overnight at 4° C. onto separate wells of Nunc Maxisorp 96 well plates (Thermo Fisher Scientific, Waltham, Mass.) using a coating concentration of 1 μg/mL in phosphate-buffered saline (PBS). The plates were washed three times in PBS/0.05% Tween-20 (PBS-T) at 20-22° C., and blocked with 0.5% bovine serum albumin in PBS (PBS-B) for 2 hours at 20-22° C. MicAbodies were titrated against the plate-bound natural or non-natural Fc-NKG2D fusions for 60 minutes at 20-22° C. in PBS/0.5% bovine serum albumin (BSA)/0.05% Tween-20 (PBS-BT), washed 3 times with PBS-T at 20-22° C., and the bound bispecific proteins detected using an HRP-conjugated anti-human kappa in PBS-BT (Abcam, Cambridge Mass.) and developed with 1-Step™ Ultra TMB ELISA Substrate Solution (Thermo Fisher Scientific, Waltham, Mass.).

[2] = target: T2, Fc-eNKG2D12 (Y152D/Y199D) (human); assay: ELISA, Fc-eNKG2D coated, MicAbody titrated from 300 nM
T2 construct: also called eNKG2D12 D|D
T2 sequence (chain, as listed by the source Y152D Y199D Y152D Y199D limits assumed): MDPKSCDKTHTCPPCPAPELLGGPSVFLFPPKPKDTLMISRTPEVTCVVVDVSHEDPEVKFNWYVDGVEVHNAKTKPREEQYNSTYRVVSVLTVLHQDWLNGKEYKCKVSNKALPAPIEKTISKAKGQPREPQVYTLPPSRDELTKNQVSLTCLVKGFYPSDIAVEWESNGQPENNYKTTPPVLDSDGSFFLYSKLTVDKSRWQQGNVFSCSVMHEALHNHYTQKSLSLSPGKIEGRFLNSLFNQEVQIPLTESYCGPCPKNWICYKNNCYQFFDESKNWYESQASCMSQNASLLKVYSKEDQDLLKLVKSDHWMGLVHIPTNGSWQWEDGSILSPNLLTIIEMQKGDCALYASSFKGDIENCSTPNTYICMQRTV
Method: as §1

Fc-eNKG2D6 (Y152L/Y199F) = target: T3, Fc-eNKG2D6 (Y152L/Y199F) (human); assay: as above
T3 construct: also called eNKG2D6 L|F
T3 sequence (chain, as listed by the source Y152L Y199F Y152L Y199F limits assumed): as the sequence (chain, as listed by the source Y152D Y199D Y152D Y199D limits assumed) above, with D312L, D359F counted along it
Method: as §1

Fc-eNKG2D8 (Y152T/Y199F) = target: T4, Fc-eNKG2D8 (Y152T/Y199F) (human); assay: as above
T4 construct: also called eNKG2D8 T|F
T4 sequence (chain, as listed by the source Y152T Y199F Y152T Y199F limits assumed): as the sequence (chain, as listed by the source Y152D Y199D Y152D Y199D limits assumed) above, with D312T, D359F counted along it
Method: as §1

Fc-eNKG2D7 (Y152S/Y199F) = target: T5, Fc-eNKG2D7 (Y152S/Y199F) (human); assay: as above
T5 construct: also called eNKG2D7 S|F
T5 sequence (chain, as listed by the source Y152S Y199F Y152S Y199F limits assumed): as the sequence (chain, as listed by the source Y152D Y199D Y152D Y199D limits assumed) above, with D312S, D359F counted along it
Method: as §1

[3] = target: T6, Fc-eNKG2D13 (Y152E/Y199E) (human); assay: as above
T6 construct: also called eNKG2D13 E|E
T6 sequence (chain, as listed by the source Y152E Y199E Y152E Y199E limits assumed): as the sequence (chain, as listed by the source Y152D Y199D Y152D Y199D limits assumed) above, with D312E, D359E counted along it
Method: as §1

Fc-eNKG2D9 (Y152V/Y199F) = target: T7, Fc-eNKG2D9 (Y152V/Y199F) (human); assay: as above
T7 construct: also called eNKG2D9 V|F
T7 sequence (chain, as listed by the source Y152V Y199F Y152V Y199F limits assumed): as the sequence (chain, as listed by the source Y152D Y199D Y152D Y199D limits assumed) above, with D312V, D359F counted along it
Method: as §1

Fc-eNKG2D5 (Y152A/Y199F) [4] = target: T8, Fc-eNKG2D5 (Y152A/Y199F) (human); assay: as above
T8 construct: also called eNKG2D5 A|F; Fc-NKG2D.AF
T8 sequence (chain, as listed by the source Y152A Y199F Y152A Y199F limits assumed): as the sequence (chain, as listed by the source Y152D Y199D Y152D Y199D limits assumed) above, with D312A, D359F counted along it
Method: as §1

Fc-eNKG2D14 (Y152L) = target: T9, Fc-eNKG2D14 (Y152L) (human); assay: ELISA, Fc-NKG2D coated, MicAbody titrated from 300 nM
T9 construct: also called eNKG2D14 L|Y
Method: as §1

Fc-NKG2D.wt [5] = target: T1, Fc-NKG2D.wt; assay: as above
Method: as §1

Fc-eNKG2D3 (Y152T) = target: T10, Fc-eNKG2D3 (Y152T) (human); assay: as above
T10 construct: also called eNKG2D3 T|Y
Method: as §1

Fc-eNKG2D4 (Y152V) = target: T11, Fc-eNKG2D4 (Y152V) (human); assay: as above
T11 construct: also called eNKG2D4 V|Y
Method: as §1

Fc-eNKG2D2 (Y152S) = target: T12, Fc-eNKG2D2 (Y152S) (human); assay: as above
T12 construct: also called eNKG2D2 S|Y; not shown: human IgG1 Fc (without Fab domains)
Method: as §1

Fc-NKG2D.wt [6] = target: T1, Fc-NKG2D.wt; assay: ELISA of rituximab-MicAbodies
Fc-eNKG2D5 (Y152A/Y199F) [7] = target: T8, Fc-eNKG2D5 (Y152A/Y199F); assay: ELISA of rituximab-MicAbodies
Fc-NKG2D.Y152A [8] = target: T13, Fc-NKG2D.Y152A (human); assay: ELISA and Octet, bispecific antibody fused format
T13 construct: also called eNKG2D A|Y; Fc-NKG2D.YA

[9] = target: T14, WT α1-α2 domain (soluble wild-type MICA, titrated) (UniProt Q29983 24-204); assay: BLI (Octet), biotinylated human NKG2D coated, 100 nM analyte
T14 construct: domain: α1-α2; also called WT MICA; WT NKG2DL
T14 sequence (looked up): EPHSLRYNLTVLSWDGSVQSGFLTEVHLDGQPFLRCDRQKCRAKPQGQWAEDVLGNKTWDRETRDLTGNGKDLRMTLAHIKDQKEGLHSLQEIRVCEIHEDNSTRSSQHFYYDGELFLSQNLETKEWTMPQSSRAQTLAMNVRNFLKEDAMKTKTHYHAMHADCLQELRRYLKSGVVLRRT

[10] = target: T14, WT α1-α2 domain (soluble wild-type …); assay: BLI (Octet), Kd = kOFF/kON
Fc-NKG2D.Y152A [11] = target: T13, Fc-NKG2D.Y152A; assay: ELISA of rituximab-MicAbodies
[12] = target: T15, Y152A mutant NKG2D ectodomain (His-avitag, biotinylated) (human); assay: ELISA, ligand-Fc coated, biotinylated NKG2D titrated
T15 construct: also called Y152A non-natural NKG2D receptor; not shown: N-terminal His-avitag
T15 chain: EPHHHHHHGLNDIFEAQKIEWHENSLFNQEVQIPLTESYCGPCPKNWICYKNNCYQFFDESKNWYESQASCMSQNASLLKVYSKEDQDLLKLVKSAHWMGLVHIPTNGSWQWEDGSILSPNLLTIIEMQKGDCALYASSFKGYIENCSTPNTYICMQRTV
Method: (§2) In addition to purifying the above 3 Fc-fusion proteins NKG2D ligand-Fc fusion proteins MICB-Fc, ULBP1-Fc, ULBP2-Fc, ULBP3-Fc, and ULBP4-Fc were purchased from R&D Systems, Inc. (Minneapolis, Minn.). Binding of the different α1-α2 domain-Fc fusions to both natural and non-natural NKG2D ectodomain proteins was analyzed using a plate-based ELISA method. All of the natural and non-natural α1-α2 domain-Fc fusions were coated overnight at 4° C. onto separate wells of Maxisorp 96 well plates using a coating concentration of 2 μg/ml in phosphate-buffered saline (PBS). The plates were washed 3-times in PBS/0.05% Tween20 at 20-22° C., and blocked with 0.5% bovine serum albumin for 2 hours. The biotinylated natural and non-natural NKG2D receptor proteins were titrated against the plate-bound NKG2D ligands for 2 hours at 20-22° C., washed 3 times with PBS/0.05% Tween20 at 20-22° C., and the bound NKG2D proteins subsequently detected using a streptavidin-HRP secondary detection step and developed with 1-Step Ultra TMB Elisa.

[13] = target: T16, double Y152A plus Y199A mutant NKG2D ectodomain (His-avitag, biotinylated) (human); assay: as above
T16 construct: not shown: N-terminal His-avitag
T16 chain: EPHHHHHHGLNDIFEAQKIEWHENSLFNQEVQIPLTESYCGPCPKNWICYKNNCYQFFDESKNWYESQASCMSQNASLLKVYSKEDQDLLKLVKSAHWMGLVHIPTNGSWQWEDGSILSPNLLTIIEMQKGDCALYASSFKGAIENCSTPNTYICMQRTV
Method: as §2

[14] = target: T17, Y199A mutant NKG2D ectodomain (His-avitag, biotinylated) (human); assay: as above
T17 construct: not shown: N-terminal His-avitag
T17 chain: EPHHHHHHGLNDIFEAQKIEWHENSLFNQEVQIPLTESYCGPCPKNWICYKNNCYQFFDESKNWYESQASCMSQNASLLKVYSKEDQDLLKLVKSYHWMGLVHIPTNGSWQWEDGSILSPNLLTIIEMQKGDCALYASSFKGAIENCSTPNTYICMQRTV
Method: as §2

B1: ULBP2.wt rituximab-MicAbody (bispecific antibody, human IgG1, kappa)
heavy: not shown
light: QIVLSQSPAILSASPGEKVTMTCRASSSVSYIHWFQQKPGSSPKPWIYATSNLASGVPVRFSGSGSGTSYSLTISRVEAEDAATYYCQQWTSNPPTFGGGTKLEIKRTVAAPSVFIFPPSDEQLKSGTASVVCLLNNFYPREAKVQWKVDNALQSGNSQESVTEQDSKDSTYSLSSTLTLSKADYEKHKVYACEVTHQGLSSPVTKSFNRGECAPTSSSGGGGSEPHSLSYDITVIPKFRPGPRWCAVQGQVDEKTFLHYDCGNKTVTPVSPLGKKLNVTTAWKAQNPVLREVVDILTEQLRDIQLENYTPKEPLTLQARMSCEQKAEGHSSGSWQFSFDGQIFLLFDSEKRMWTTVHPGARKMKEKWENDKVVAMSFHYFSMGDCIGWLEDFLMGMDSTLEPS
notes: also called ULBP2 MicAbody
EC50 (Fc-NKG2D.wt [1]): 1.4 nM
binding result [2]: no binding (tested: 300 nM)
binding result (Fc-eNKG2D6 (Y152L/Y199F)): no binding (tested: 300 nM)
binding result (Fc-eNKG2D8 (Y152T/Y199F)): no binding (tested: 300 nM)
binding result (Fc-eNKG2D7 (Y152S/Y199F)): no binding (tested: 300 nM)
binding result [3]: no binding (tested: 300 nM)
binding result (Fc-eNKG2D9 (Y152V/Y199F)): no binding (tested: 300 nM)
binding result (Fc-eNKG2D5 (Y152A/Y199F) [4]): no binding (tested: 300 nM)
EC50 (Fc-eNKG2D14 (Y152L)): 87.6 nM
EC50 (Fc-NKG2D.wt [5]): 1.41 nM
EC50 (Fc-eNKG2D3 (Y152T)): 31.1 nM
EC50 (Fc-eNKG2D4 (Y152V)): 35.8 nM
EC50 (Fc-eNKG2D2 (Y152S)): 34.8 nM

B2: rituximab-ULBP2.S3 MicAbody (bispecific antibody, human IgG1, kappa)
heavy: not shown
light: QIVLSQSPAILSASPGEKVTMTCRASSSVSYIHWFQQKPGSSPKPWIYATSNLASGVPVRFSGSGSGTSYSLTISRVEAEDAATYYCQQWTSNPPTFGGGTKLEIKRTVAAPSVFIFPPSDEQLKSGTASVVCLLNNFYPREAKVQWKVDNALQSGNSQESVTEQDSKDSTYSLSSTLTLSKADYEKHKVYACEVTHQGLSSPVTKSFNRGECAPTSSSGGGGSEPHSLSYDITVIPKFRPGPRWCAVQGQVDEKTFLHYDCGNKTVTPVSPLGKKLNVTTAWKAQNPVLREVVDILTEQLWDIQLENYTPKEPLTLQARMSCEQKAEGHSSGSWQFSFDGQIFLLFDSEKRMWTTVHPGARKMKEKWENDKVVATKLYLWSMGDCIGWLEDFLMGMDSTLEPS
notes: also called ULBP2.S3 as a MicAbody
binding result (Fc-NKG2D.wt [6]): no binding
binding result (Fc-eNKG2D5 (Y152A/Y199F) [7]): no binding
binding result (Fc-NKG2D.Y152A [8]): binds

B3: biotinylated human NKG2D (Example 1) (receptor, UniProt P26718 78-216, looked up)
chain: FLNSLFNQEVQIPLTESYCGPCPKNWICYKNNCYQFFDESKNWYESQASCMSQNASLLKVYSKEDQDLLKLVKSYHWMGLVHIPTNGSWQWEDGSILSPNLLTIIEMQKGDCALYASSFKGYIENCSTPNTYICMQRTV
notes: also called recombinant biotinylated NKG2D
koff [9]: 0.0018 s⁻¹
kon [9]: 130000 M⁻¹ s⁻¹
Kd [10]: 13.8 nM

B4: rituximab-ULBP2.R MicAbody (bispecific antibody, human IgG1, kappa)
heavy: not shown
light: QIVLSQSPAILSASPGEKVTMTCRASSSVSYIHWFQQKPGSSPKPWIYATSNLASGVPVRFSGSGSGTSYSLTISRVEAEDAATYYCQQWTSNPPTFGGGTKLEIKTVAAPSVFIFPPSDEQLKSGTASVVCLLNNFYPREAKVQWKVDNALQSGNSQESVTEQDSKDSTYSLSSTLTLSKADYEKHKVYACEVTHQGLSSPVTKSFNRGECAPTSSSGGGGSEPHSLSYDITVIPKFRPGPRWCAVQGQVDEKTFLHYDCGNKTVTPVSPLGKKLNVTTAWKAQNPVLREVVDILTEQLWDIQLENYTPKEPLTLQARMSCEQKAEGHSSGSWQFSFDGQIFLLFDSEKRMWTTVHPGARKMKEKWENDKVVATLLWGWSMGDCIGWLEDFLMGMDSTLEPS
notes: also called rituximab-MicAbody with ULBP2 variant R
binding result (Fc-NKG2D.Y152A [11]): no binding

B5: MICA-Fc (α1-α2-α3-Fc fusion, made in 293 cells) (Fc fusion)
chain: EPHSLRYNLTVLSWDGSVQSGFLTEVHLDGQPFLRCDRQKCRAKPQGQWAEDVLGNKTWDRETRDLTGNGKDLRMTLAHIKDQKEGLHSLQEIRVCEIHEDNSTRSSQHFYYDGELFLSQNLETKEWTMPQSSRAQTLAMNVRNFLKEDAMKTKTHYHAMHADCLQELRRYLKSGVVLRRTVPPMVNVTRSEASEGNITVTCRASGFYPWNITLSWRQDGVSLSHDTQQWGDVLPDGNGTYQTWVATRISQGEEQRFTCYMEHSGNHSTHPVPSGKIEGRMDPKSCDKTHTCPPCPAPELLGGPSVFLFPPKPKDTLMISRTPEVTCVVVDVSHEDPEVKFNWYVDGVEVHNAKTKPREEQYNSTYRVVSVLTVLHQDWLNGKEYKCKVSNKALPAPIEKTISKAKGQPREPQVYTLPPSRDELTKNQVSLTCLVKGF
binding result [12]: no binding
binding result [13]: no binding
binding result [14]: no binding
